Literature values in publication PMC9414616.

Target: NTSR2 (UniProt O95665)
Chain of UniProt O95665 (O95665 whole entry): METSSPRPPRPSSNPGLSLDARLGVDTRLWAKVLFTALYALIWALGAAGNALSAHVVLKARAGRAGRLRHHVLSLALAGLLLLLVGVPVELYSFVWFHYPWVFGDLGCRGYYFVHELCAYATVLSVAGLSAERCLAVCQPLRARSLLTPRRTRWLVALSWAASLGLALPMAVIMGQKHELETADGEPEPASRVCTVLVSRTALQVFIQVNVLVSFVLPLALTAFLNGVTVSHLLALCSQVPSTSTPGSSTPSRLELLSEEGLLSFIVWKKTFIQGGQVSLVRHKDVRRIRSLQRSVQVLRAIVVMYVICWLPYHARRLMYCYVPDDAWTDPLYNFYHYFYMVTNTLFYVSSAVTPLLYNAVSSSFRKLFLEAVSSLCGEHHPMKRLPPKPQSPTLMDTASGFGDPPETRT

neurotensin (from UniProt P30990)
Kd: 4 nM
